According to the DeepSol protein solubility set:

Experiment: soluble on expression in E. coli; label from the status in PepcDB or PDB records

Sequence | soluble on expression in E. coli
MFFIKDLSLNITLHPSFFGPRMKQYLKTKLLEEVEGSCTGKFGYILCVLDYDNIDIQRGRILPTDGSAEFNVKYRAVVFKPFKGEVVDGTVVSCSQHGFEVQVGPMKVFVTKHLMPQDLTFNAGSNPPSYQSSEDVITIKSRIRVKIEGCISQVSSIHAIGSIKEDYLGAI | soluble
MSLSQSALSELLEAFRAGDGVDLICESVRVALQDLIQLEASERIGAAPYERTDARVSERNGHRPRVLTTKAGDVELRIPKLRKGSFFPVILEPRRRIDQALYAVVMEAYVHGVSTRSVDDLVEAMGVDAGISKSEVSRICAGLDEQVGAFRTRALDHTEFPYVYLDATYLNVRNTTGQVTSMAVVVATGIAADGSREVLGLDVGDSEDETFWRGFLTALKQRGLHGVQLVISDQHAGLVKALRRSFQGAGHQRCRVHFARNLLAHVPKSHGDMVAAVFRTIFAQPDAAAVSHAWDEVRDQLAKSFPKIGPLMDEAKAEVTAFTVFPRAHWQKIWSTNPLERSTRRSSDAPGWSGSEGHHHHHH | soluble
MSLNLPFRAMVSDLDGTLLTPEHLVGDLTIDTLRALEQKGVDIILATGRNHTDVSSILGKIGAERAVMITSNGARVRDLQGNLLYSNSLPEELVLELYKTPFDTSKVCMNSYQDEGWFTNKDIPAMRQFHKESGFDYNVVDFSKHHGRGTEKVFFIGKTPEDLVEVETYLRDKFGDVTTIVYSALACLEVMNKNVSKGDALKHLLESREYELKDCIAFGDGMNDVEMLSWAGKGCIMKDADIRLKMACPELEVIGSNKEESVARYLRTQFGLDYEGHHHHHH | soluble
MAHHHHHHMSSELVLAQESAWDKFGSKLKDMPFLNNFFENPILGKLFGETELAAALREMKMYDQNFKLSELMYLFEFVISKHIVESYLIGDEETLRVHCGQSAFNSLNASINERKKKKVYLDTNVLIYKNHELKGAQRMEESSPWFIFTFHTQQINCLKNANDEIIEGNIDDIREVVYTIALSKHPEPEREGLLYPYIVREFAIY | not soluble
MGSDKIHHHHHHMKKIGHRIKTRRKLKGLTQEALGLAVGVSKVSVSSWELGKNSMHPELLNKVAGVLGVDAHWLLTGESFATLEDEKDSVFWAPKYKNIKAAAGAGCCHDDCLDEDEDEVPIPIKFVKNQTNKDQIFCVCVSGDSMEPVLSDGSIIAMNSSDTIIKDGKMYLVKQDDLLRVKVIHLLPKDMVLKSYNPNFKDETYNIKKDNIQILGRVFWFTSGR | not soluble
MGSDKIHHHHHHLTDMLAPRVVARLRGVTKSFDGTTVVRNVDLDFRSGEVHVLAGENGAGKSTLTKLLAGIHQPDHGTVEINGQMGPFDVKSSRTAGVTLVHQELLIAPNLTVADNLAMGQENRNRFRGLDRTATLENARAQLAHIGATFPVTMRAEELTVADHQQIEIARALAQKPKILILDEPTSALSSAETERLLRIVDELRRNGTSVIYITHRMEEIEALADIVSIMRDGSLVETMPKAEATPDAIVLRMVGRKIDSLFTAERPEPGRVVLRVEQLTNGKDIGPIDLDVRAGEVVGIGGLIGSGRSEFVRLIFGADRASSGTVSVDGSPVNVTGPGSAVRAGIALLPESRKTQGLVLDQSIAANIVLASLGHISSAGVVTPAAVKRVASKAQKRLGIKSASLGQEVTTLSGGNQQKVLFAKWLETKPKVLILDEPTRGVDVGAKAEIYQIINECAHAGVAVLVISSELPELIGLSSRVHVMREGRLVAEIDAQSLTEEAVMNHAFGIAQATQA | not soluble
MTYRVLDPNAQEGSPTEVLVRMYSHPQLRRLYADTEACYTTALADSITGEMRAAFERLRVSDPQMAIPRYVAFHVSGLQQSVVAVPDLVSVSIDKYIRPDYPVYLQFFSEYARQTMSPEYVVRDAVLGWICSERPLPRETVLTLRFQLEYWGDIYRLMKQVFPQASDEWLFGFTSDQLLWMKQNRKILLDNALKRGEMESSQPTVTDRYFKELPPDQLLPPEAPRLIGHWLGTNL | not soluble
MVAAPPAVGAAMPSLDFDTSVFNKEKVSLAGHEEYIVRGGRNLFPLLPEAFKGIKQIGVIGWGSQGPAQAQNLRDSLAEAKSDIVVKIGLRKGSKSFDEARAAGFTEESGTLGDIWETVSGSDLVLLLISDAAQADNYEKIFSHMKPNSILGLSHGFLLGHLQSAGLDFPKNISVIAVCPKGMGPSVRRLYVQGKEINGAGINSSFAVHQDVDGRATDVALGWSVALGSPFTFATTLEQEYKSDIFGERGILLGAVHGIVEALFRRYTEQGMDEEMAYKNTVEGITGIISKTISKKGMLEVYNSLTEEGKKEFNKAYSASFYPCMDILYECYEDVASGSEIRSVVLAGRRFYEKEGLPAFPMGNIDQTRMWKVGEKVRSTRPENDLGPLHPFTAGVYVALMMAQIEVLRKKGHSYSEIINESVIESVDSLNPFMHARGVAFMVDNCSTTARLGSRKWAPRFDYILTQQAFVTVDKDAPINQDLISNFMSDPVHGAIEVCAELRPTVDISVPANADFVRPELRQSS | soluble
MNAHDEVQRTLNPTCTGTSVIALQYKTGVVVLTDRVVSYGKMARYKNVSRQYKVNDNVLIAFGGDHADFHWLQNVIERQVLLWKRFDQDIGPKALHGYLTSLLYAKRCKMNPVWNTLVVAGVEEEEKNNKETSTPFIGVITQKGCAYQVKHIATGLGAFLLNQAVEDEWRKKGEDLSREEAEAVLRKSLELTLYHDCVADNEFEIGRVDATEGVVLGKEEKIIGDWSIAETNCQYE | not soluble
MLSEQLLAQQHLPEKLKKNIPGLYFHGRVGRGKTMLMDLFYQHLAIKNKKRIHFHHFMESVHQQLAQLTGQSEPLSHIAAKWAQNIDLLCFDEFYVSDIGDAMLLSGLFSALFKQGVTLVATSNCQPEQLYRNGLQRERFLPTIALINQHCQIVSINGDVDHRRTKLSKNSCYNNYFLLANEGNEKLIERFQSLTDAEMLVSGEIEINHRQLCYLAQSANVIFFDFFALCSGPRSQRDYMVLAKDFDTVCIANVPKFSGELVPAVFSGVEDSYQRSGVLMGELQQLDDEARRFIALVDEFYDQNVKLIVSAQVDIFELYQGQQLAFEFERCQSRLIEMQQSLEHHHHHH | not soluble
MEIERKFLVLNDDFKAKATAVHNIIQAYLVADERCTVRIRLCNDEAYLTIKGKTNEGGLSRSEYEYSVPFEEAKEMLTLCLPGYIMKQRYCVPHKGHVWEVDVFEGRHKGLVIAEVELATEDESIELPDWIGNEVTGDKRYYNSFIAGIQK | soluble
MGSDKIHHHHHHMSGGDAMAKAVKQPAPDAEQIVLAIDIGGSHVKILTSAGGAERRDDSGPDLTPQQMIDKVKKLAEGLSYDVISMGYPGPVRHNKPVLDPKNLGKGWAGFDFAAQFGKPVKVVNDALMQAIGSYEGGRMLFLGLGTGLGAAMVFDNVGQPMELAHLPYRKGRSFEDYVGERGLEKRGKKKWRKYVFDVVTRLRAALQPDYVVIGGGNVDKLDALPAEARRGDNTRAFEGGFRLWRDKALIV | not soluble
MGSDKIHHHHHHMFLEKLVEMARGKGKKLAVAAANDDHVIEAVYRAWRERVCEPVLFGPEEEITRIIEELVPEWKNPQIIDCPPEEAGRLAVEAVSKGECDFLMKGKIKTGDLMKIYLDERYGLRTGKTMAMVSVMEIPDFPRPLIISDPGMLISPTLEQKVDMIEHCVRVANVMGLETPKVAVVGAIEVVNPKMPITMEAAILSKMNQRGQIKGCIVDGPFALDNVVSEEAAKKKGIQSPVAGKADILILPDIEAANILYKALVFLAKAKSASTILGGKVPVVLTSRADSEETKFYSIALSAVFA | not soluble
MNNYDDLPCSIYFKKPTVQEFVDQPRVFEDSEVPAFQEVLQLPQERTKPPVPSTQPIVAAVEVAKKKSCLSAPKPRKEPPSHPALRQKTVAFGKTVNVSQTVEGTSRNSKKVLASTMSAQNTTTTEEQAAENWRDAMKTELQTIRTEIQEETARRQEELNAQNLVKMQELMSNFFQKITIPKQQAIEPVEKDKENFHESPRQSRQQKPASKIASAREVIKRDGVIPPEALTIIEQRLRSDPMFRQQIDNVLADAECDANRAAYSPPPPMSEVRYGSGVNPALMRETLTVERSIRYDNGLASIDSRQWTNERRDNRAPDSYRTYEPDQPCHSLYQKGQSISYYPSEAAGKTTARNNRTGYYVEDSSDHEEDVVVNKRGQNYHEQAVPETPAERERRIREKYARRK | not soluble
MGNYLNPDNSKFQRAVNSDIYVDKTGLIKYTNRVINTMQAYVCVSRPRRFGKSMAADMLTAYYSRGCDSRELFAGLEIAKDENFGGYLNKYDTVFLNVQEFLSRSSDVKELIARIKQRVIRELTRQYPDVELFDSTDLAETMQDIYAESKCPFVLIIDEWDCIFREFKNDKEAQEKYLDFLRDLIKDKSYIHLAYMTGILPIKKYGTHSALNMFDEFSMIDPGPLASYVGFTESEVEKLCGEYQMDIDEIRNWYDGYSFEEVPSVYSPKSVISCMRLGRLGNYWNQTETFEALQLYIDMNFEGLRDDILSMLAGEEVPVNTGSFTNDMATFRTEDDVLTLLIHLGYLGYRYATKTVFIPNGEIRAEFVNAVSVSDWGEVSNALKNSADTLQAIWQGREKQVAEGIRQAHFETSHIQYNDENALSYTISLALYAARNFYTVHRELSGGKGFADLVFIPRKRFMDKPALVVELKWDKDVAGAITQIREKEYCRSLEEYHGKLLLVGINYDKKTKEHSCKIEEYRK | not soluble
MTIHNFDLLVVGGGINGTGIARDAAGRHLSVCLCEQHDLASHTSSASTKLIHGGLRYLEYYEFALVSKALAEREILLRQAPHIVRPLHFILPHQPHLRPTWIIRAGLLLYDHLGFSRRTLPRSRRLNLAQHPAGQPLKQELHTGFMYCDAQVQDARLVVLNAMDAAQRGARILTRTRCVRTRRDGAHWLTELEDAQGRQQQIRTRAIVNAAGPWAVTFLDHIAQQPHQHTLRLVKGSHIVVPRLFEHEHAYIFQQPDRRIVFAIPYEQHFTLIGTTDVDYVADPANPHIDAAETMYLCNAVNSYFRQQITPEDVLWSYSGVRPLLNDGHNNASKVTRDYQLEILGNSAPLLNVFGGKLTTYRKLSEEAVNQLCVALDHPYRAWTANGPPLPGGEHHDIAALQNTLRQHRPWLPTATAQRLIHNYGTYAETLLGNATNLHTLGIHFGADLYQAEVDYLRTHEWACSAEDILWRRSKLGLHLDAHGTQRLEDYLRSCSRIPDHADTTTQLEHHHHHH | not soluble
MGSDKIHHHHHHMKRLITQALDGEAGCILSDCEQYRYRLWREWDRSAPGLGFIMLNPSSADHQVNDPTITRCLQRALAGKYGRLEVVNLFPLRSTDPDGLLTHPAPLGDRPDRNECAIMDALDRCSLVICAWGAHKAAPARAAEVLRIVRMCGRGNLLYHLGLNKDGSPKHPLYIAKTKRPEPFTSIPVTQVNREYAPHR | not soluble
GSHMGGIEVLGVKTGVDSFTEVECFLNPQMGNPDEHQKGLSKSLAAEKQFTDDSPDKEQLPCYSVARIPLPNINEDLTCGNILMWEAVTVKTEVIGVTAMLNLHSGTQKTHENGAGKPIQGSNFHFFAVGGEPLELQGVLANYRTKYPAQTVTPKNATVDSQQMNTDHKAVLDKDNAYPVECWVPDPSKNENTRYFGTYTGGENVPPVLHITNTATTVLLDEQGVGPLCKADSLYVSAVDICGLFTNTSGTQQWKGLPRYFKITLRKRSVKN | soluble
MVKFIESELILLKKEVDEMWTLVYNQLDRAGEAVMTLDKELAQQVMVRERRVNAFELKIDSDIEDIIALYNPVAIDLRFVLAMLKINTNLERLGDFAEGIARFVIRCKEPVLDADLLARLRLGEMQAEVLSMLELAKRALNEENIEMATAVFGKDNLLDDINAEATGILADYIREHPETAHTCVDLVGVFRKLERSGDHITNIAEEIVFFIDAKVLKHSGKVDENYPKS | not soluble
